Target: T1, Hemagglutinin (HA) of human influenza A virus A2/Aichi/2/68 (H3N2サブタイプ) (human influenza A virus A2/Aichi/2/68 …, UniProt P03437 17-566)
T1 construct: whole, on cells; also called A/Aichi/2/68; A2/Aichi/2/68

B1: モノクローナル抗体C179 (monoclonal antibody C179) (antibody, V domains shown)
VH: EVKLVESGGGLVQPGGSLRLSCGTSGFTLTDDYMTWVRQPPGKALEWLGFIRDRANGYTTEYSASVKGRFTISRDNSQSIVYLQMNTLRVEDSATYYCARPKGYFPYAMDYWGQGT
VL: DIQMTQSPASQSASLGESVTITCLASQTIGTWLAWYQQKPGKSPQLLIYAATSLADGVPSRFSGSGSGTKFSFKISSLQAEDFVSYYCQQLYSTPWTF
notes: also called antibody of Hybridoma C179 (FERM BP-4517)
binding result: no binding

— patent JPH07265077A (dated 1995)
